From article PMC6384913

Test system: MBP-(ZF)x6 (designed chimera), Q01844-5+P47974+O95218+O95218+P52756+P47974
Assay: BLI
Details: ITC: 50 mM Tris pH 7.5, 150 mM NaCl, 1 mM DTT, 0.1 mM ZnCl2, 25 °C, BLI: 50 mM Tris pH 7.5, 150 mM NaCl, 0.1% BSA, 0.02% Tween, 30 °C

Sequence of MBP-(ZF)x6 (designed chimera), Q01844-5+P47974+O95218+O95218+P52756+P47974 (P52756 whole entry, looked up, change not shown, chain 1 of 4): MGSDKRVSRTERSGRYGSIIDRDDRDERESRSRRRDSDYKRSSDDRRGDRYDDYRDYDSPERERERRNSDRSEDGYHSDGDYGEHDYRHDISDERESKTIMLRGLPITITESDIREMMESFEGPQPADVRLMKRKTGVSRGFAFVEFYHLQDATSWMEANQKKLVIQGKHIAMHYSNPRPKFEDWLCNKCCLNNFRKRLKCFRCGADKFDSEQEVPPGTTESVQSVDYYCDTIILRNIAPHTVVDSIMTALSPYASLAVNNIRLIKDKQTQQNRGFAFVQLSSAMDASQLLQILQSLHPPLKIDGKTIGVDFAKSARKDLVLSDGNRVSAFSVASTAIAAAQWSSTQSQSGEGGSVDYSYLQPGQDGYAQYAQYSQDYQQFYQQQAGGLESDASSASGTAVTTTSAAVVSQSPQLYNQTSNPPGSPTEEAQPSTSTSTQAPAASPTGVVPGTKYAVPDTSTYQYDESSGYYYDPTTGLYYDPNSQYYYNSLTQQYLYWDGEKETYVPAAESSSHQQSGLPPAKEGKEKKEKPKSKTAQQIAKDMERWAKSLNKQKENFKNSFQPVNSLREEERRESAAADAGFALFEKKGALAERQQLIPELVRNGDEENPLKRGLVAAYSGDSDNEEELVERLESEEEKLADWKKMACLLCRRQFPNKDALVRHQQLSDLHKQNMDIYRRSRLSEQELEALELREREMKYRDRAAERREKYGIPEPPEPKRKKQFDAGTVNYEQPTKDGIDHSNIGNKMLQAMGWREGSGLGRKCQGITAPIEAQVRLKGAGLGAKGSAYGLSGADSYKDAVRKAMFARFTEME
Sequence of MBP-(ZF)x6 (designed chimera), Q01844-5+P47974+O95218+O95218+P52756+P47974 (P47974 whole entry, looked up, change not shown, chain 2 of 4): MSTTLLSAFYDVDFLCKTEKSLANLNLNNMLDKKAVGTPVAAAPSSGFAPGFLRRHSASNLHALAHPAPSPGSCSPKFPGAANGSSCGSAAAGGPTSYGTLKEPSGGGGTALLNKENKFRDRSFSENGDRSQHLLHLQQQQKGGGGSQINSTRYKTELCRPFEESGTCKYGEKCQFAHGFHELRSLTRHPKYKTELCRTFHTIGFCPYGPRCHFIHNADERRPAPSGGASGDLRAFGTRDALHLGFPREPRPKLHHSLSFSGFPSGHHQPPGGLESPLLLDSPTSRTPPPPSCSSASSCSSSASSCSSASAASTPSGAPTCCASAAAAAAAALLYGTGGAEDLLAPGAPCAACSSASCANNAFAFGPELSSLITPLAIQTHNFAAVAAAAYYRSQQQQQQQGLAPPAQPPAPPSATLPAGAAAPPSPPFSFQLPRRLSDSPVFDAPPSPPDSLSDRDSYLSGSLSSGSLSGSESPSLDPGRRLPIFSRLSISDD
Sequence of MBP-(ZF)x6 (designed chimera), Q01844-5+P47974+O95218+O95218+P52756+P47974 (O95218 whole entry, looked up, change not shown, chain 3 of 4): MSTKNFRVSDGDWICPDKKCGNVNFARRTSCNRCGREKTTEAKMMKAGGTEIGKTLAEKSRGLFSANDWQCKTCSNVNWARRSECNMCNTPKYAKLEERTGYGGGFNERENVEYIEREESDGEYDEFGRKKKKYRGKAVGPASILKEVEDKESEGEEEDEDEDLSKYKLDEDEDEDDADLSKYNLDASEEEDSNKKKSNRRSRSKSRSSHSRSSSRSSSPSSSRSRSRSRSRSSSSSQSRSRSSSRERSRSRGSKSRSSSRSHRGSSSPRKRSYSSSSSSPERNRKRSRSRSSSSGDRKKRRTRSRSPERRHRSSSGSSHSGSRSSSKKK
Sequence of MBP-(ZF)x6 (designed chimera), Q01844-5+P47974+O95218+O95218+P52756+P47974 (Q01844 whole entry, looked up, change not shown, chain 4 of 4): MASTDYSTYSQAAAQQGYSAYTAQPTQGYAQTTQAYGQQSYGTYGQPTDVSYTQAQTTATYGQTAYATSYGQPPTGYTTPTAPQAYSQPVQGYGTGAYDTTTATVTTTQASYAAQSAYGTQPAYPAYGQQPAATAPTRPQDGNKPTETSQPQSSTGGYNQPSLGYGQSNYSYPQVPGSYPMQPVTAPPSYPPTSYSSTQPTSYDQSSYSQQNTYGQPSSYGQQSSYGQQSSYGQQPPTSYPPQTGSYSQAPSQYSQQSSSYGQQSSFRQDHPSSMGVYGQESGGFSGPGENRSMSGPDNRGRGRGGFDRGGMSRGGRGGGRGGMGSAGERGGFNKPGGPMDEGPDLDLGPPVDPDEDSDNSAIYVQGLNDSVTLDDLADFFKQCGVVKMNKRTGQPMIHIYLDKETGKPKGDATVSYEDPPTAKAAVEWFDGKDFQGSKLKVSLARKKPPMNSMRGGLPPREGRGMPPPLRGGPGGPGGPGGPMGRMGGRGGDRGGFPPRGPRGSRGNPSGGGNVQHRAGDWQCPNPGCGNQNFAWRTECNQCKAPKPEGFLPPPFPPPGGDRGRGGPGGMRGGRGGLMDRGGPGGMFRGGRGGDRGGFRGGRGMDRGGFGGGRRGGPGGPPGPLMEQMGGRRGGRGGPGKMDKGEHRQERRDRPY

AAAUAUUGGUGGGUAUUGCCGGUAAA [PT (permuted target)]
Kd: 223 nM

AAAGGUUAUUGGUGCCGGGUAUUAAA [(ZF)x6 target]
Kd: 24 nM
